US20060073159A1, “Human anti-cancer immunotherapy” (The Trustees of the University of Pennsylvania, priority 2004, published 2006)

What was measured:
[1] = biological target: T1, HLA-A2 (Homo sapiens, UniProt P04439, D140Y/D185E/D98H/E176V/E277Q/G131W/G231S/I119V/I121R/I166T/I218V/L300P/L318F/N151K/N90K/P208A/P217A/Q86G/Q94H/R138H/R169H/T345S); test: flow-based T2 binding assay (HLA-A2 binding and MHC complex stability); details: 6 epitopes from each gene product compared, T2 cells
T1 construct: T2 cells are prepared to a concentration of 1×10^6 cells/mL; endogenous in cells; host or cells: T2 cells
Description: T2 cells are harvested as described elsewhere herin. T2 cells are wash three times in serum free media. T2 cells are prepared to a concentration of 1×10^6 cells/mL. 1 mL of T2 cells is added to each well of 24 well plate. B2M (1 mg/mL) is added to the mixture to give a final concentration of 2.5 ug/mL. Appropriate control or peptide at 50 ug/mL is added to each wll. The cells are incubated in an incubator at 37° C. For a positive control peptide, RT-POL vs flu or tax can be used.
Next day, cells are harvested and washed three times in serum-free RPMI. The supernatant is removed and the cells are resuspend in 800 ul of serum free IMDM. The cells are plated (400 ul of cells) to one well of a 48 well plate. […]
The fluorescence index (FI) can be calculated from the mean fluorescence intensity as follows: FI=(MFIpeptide/MFIno peptide)−1 The complex's half-life can be calculated using SigmaPlot regression analysis and the following formula: y=yo+a*e^bx t1/2=1/b*ln((y−yo)/a) with yo=Fimax/2 Conjugation of Monomers to Generate Tetramers
HLA-A2-restricted epitopes derived from HoxA9 and Meis I were predicted using two computational algorithms, and 6 epitopes from each gene product with the highest predicted likelihood of binding to HLA-A2 were evaluated empirically using a flow-based T2 assay, as described (Vonderheide et al., 1999, Immunity 10:673-679). […]

[2] = test system: T2 cells loaded with cognate peptide; test: lysis of peptide-loaded T2 cells by peptide-specific CTL; format: cell-based, human; details: not negative control viral peptide
Description: The following assay is adapted from Fischer et al. (2002, J. Immunol. Methods 259:159-169). Briefly, T2 cells are labeled as follows. T2 cells are plated at 1×10^6/mL in serum-free RPMI-1640×1 mL in 24 well plate. 2.5 ug/mL B2M is added to the cells. 1 ug/mL peptide (Tax or Flu) is added to the mixture. The cells are incubate overnight at 37° C. in a CO2 incubator. The cells are then washed once in RPMI-1640 (serum free). The supernatant is removed; leaving about 25 ul supernatant on the pellet. The remaining cells in suspension are agitated to mix with the supernatant. 1 mL of diluent C is added to resuspend the cells.
Immediately prior to staining, 4×10)(−6)M PKH26 dye is prepared at RT (1:250 dilution of stock; 4 ul of 996 ul diluent C). 1 mL of PKH26 dye is immediately added to 1 mL of cells. The sample is immediatedly mixed by gentle pipetting. The sample is incubate at RT for about 2-5 minutes, with periodical swirling of the tube to insure mixing. The staining reaction is stopped by adding 2 mL of serum in a compatible protein solution. This solution is incubated for 1 minute to stop the staining reaction. The sample is then diluted with 4 mL of complete media (T cell media). The cells are washed two to three times with T cell media.
To assay for the T2 cells, targets at 2e5/mL in IMDM 10% huSerum is prepared. Effectors are prepared at 2×10^6/mL and 2×10^5/mL in IMDM 10% huSerum. […]

[3] = test system: HoxA9+ and Meis1+ leukemia cell lines; test: lysis of leukemia cell lines by peptide-specific CTL; format: cell-based, human; details: antigen-dependent, MHC-restricted; HLA-A2-negative or antigen-negative leukemia cells not killed
From the text: To determine whether these peptides could trigger the expansion of specific CTL, CD8+ T cells from normal HLA-A2+ donors were stimulated in vitro with autologous peptide-loaded antigen presenting cells, using a system previously described (Vonderheide et al., 1999, Immunity 10:673-679). […] Moreover, both Hox-TLD and Mei-AIY specific CTL were able to lyse HoxA9+ and Meis1+leukemia cell lines in an antigen-dependent, MHC-restricted fashion.

[4] = biological target: T2, human HLA-A*0201 (human); test: flow-based T2 assay (HLA-A2 stabilisation on peptide-pulsed T2 cells, anti-HLA-A2-FITC)
T2 construct: HLA-A2 on TAP-deficient T2 cells; Surface stabilisation by peptide was read with anti-HLA-A2-FITC by flow cytometry; also called HLA-A2; A2
Description: Next day, cells are harvested and washed three times in serum-free RPMI. The supernatant is removed and the cells are resuspend in 800 ul of serum free IMDM. The cells are plated (400 ul of cells) to one well of a 48 well plate. The cells are incubate for an additional 6 hours in an incubator at 37° C. The remaining cells are saved and place on ice for immediate analysis. The cells are stained for anti-HLA-A2-FITC and for IgG-FITC. The cells are anaylized on a flow cytometer.
HLA-A2-restricted epitopes derived from HoxA9 and Meis I were predicted using two computational algorithms, and 6 epitopes from each gene product with the highest predicted likelihood of binding to HLA-A2 were evaluated empirically using a flow-based T2 assay, as described (Vonderheide et al., 1999, Immunity 10:673-679). […] The same cells in normal HLA-A2+ donors were undetectable.

Molecule | binding and MHC complex stability [1] | lysis of T2 cells loaded with cognate peptide by specific CTL [2] | lysis of HoxA9+ and Meis1+ leukemia cell lines by specific CTL [3] | binding result [4]
Hox-TLD: epitope of the antigen HOX-A9, SEQ ID NO:3 (TLDTHTLSL; human-derived peptide) | best binding and MHC complex stability | able to lyse T2 cells loaded with cognate peptide | able to lyse | 
Mei-AIY: epitope of the antigen Meis1, SEQ ID NO:11 (AIYGHPLFPL; human-derived peptide) | best binding and MHC complex stability | able to lyse T2 cells loaded with cognate peptide | able to lyse | 
TLDTHTLSL [Hox-TLD] |  |  |  | binds
AIYGHPLFPL [Mei-AIY] |  |  |  | binds
